The values that follow come from paper PMC4907695.

By Kd is commonly meant a measure of binding affinity in units of concentration. A higher Kd goes with weaker binding.

In assay [1] the target is SecA^A795C-FL (SecA with a fluorescein label at position 795 on the tip of the two-helix finger) (E. coli) (UniProt P10408). Kind of assay: other fluorescence titration; as a1 (10 nM SecA*, TSG buffer, 0.02% DDM, 2 mM MgCl2, 1 mM AMPPNP) with SecYLGEG pre-incubated with 100 mM DTT.
Assay [2] shares this target. Put plainly: other fluorescence titration; 10 nM SecA* fixed, SecYEG varied; quenching of the fluorescein on SecA*; TSG buffer (20 mM Tris pH 7.5, 130 mM NaCl, 10% glycerol) with 0.02% DDM, 2 mM MgCl2, 1 mM AMPPNP; no DTT; fitted to a tight binding equation.

“SecYLGEG pre-incubated with 100 mM DTT (disulphide between S87C and F286C of SecY reduced) (from UniProt P0AGA2 1-443; P0AG96 1-127; P0AG99 1-110) (complex)” showed a Kd in assay [1] of 0.019 µM.

The substance “SecYLGEG, oxidised (SecYEG with the lateral gate closed by a disulphide bond between S87C and F286C of SecY) (from UniProt P0AGA2 1-443; P0AG96 1-127; P0AG99 1-110) (complex)” returned a Kd in assay [2] of 0.041 µM.
